Source: article PMC7912905

How the values were obtained:
[1] = molecular target: β-catenin (mouse (endogenous in MEFs)) (UniProt Q02248); assay: FRET or BRET; FLIM-FRET on fixed, immunostained mitotic cells with normal A-type lamins (lmna wt MEFs); SC-35 donor (Cy3), β-catenin acceptor (Cy5); E ≥ 25% taken as interaction
[2] = molecular target: phosphorylated form of RNA polymerase II (CTD repeat YSPTSPS, phospho S5), in mouse embryonic fibroblasts (mouse (endogenous in MEFs)) (UniProt P08775); assay: FRET or BRET; FLIM-FRET on fixed, immunostained interphase lmna wt cells (MEFs); SC-35 donor (secondary antibody Cy3), RNA polymerase II pS5 acceptor (secondary antibody Cy5); E ≥ 25% taken as interaction
[3] = molecular target: phosphorylated form of RNAP II in both wt MEFs and HeLa cells; assay: FRET or BRET; FLIM-FRET on wt MEFs or HeLa cells transiently transfected with EGFP-SRSF2 (donor), fixed and immunostained for lamin A or RNA polymerase II pS5 (acceptor, secondary antibody Alexa Fluor 594); E ≥ 25% taken as interaction

Sequence of EGFP-tagged SRSF2 (Q01130 whole entry): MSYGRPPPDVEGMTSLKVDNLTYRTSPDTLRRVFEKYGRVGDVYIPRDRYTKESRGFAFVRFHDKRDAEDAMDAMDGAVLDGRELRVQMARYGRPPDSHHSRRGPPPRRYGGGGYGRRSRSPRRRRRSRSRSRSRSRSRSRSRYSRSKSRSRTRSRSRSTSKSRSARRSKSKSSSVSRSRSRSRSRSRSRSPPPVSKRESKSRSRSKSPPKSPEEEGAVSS
Sequence of β-catenin (mouse (endogenous in MEFs)) (Q02248 whole entry): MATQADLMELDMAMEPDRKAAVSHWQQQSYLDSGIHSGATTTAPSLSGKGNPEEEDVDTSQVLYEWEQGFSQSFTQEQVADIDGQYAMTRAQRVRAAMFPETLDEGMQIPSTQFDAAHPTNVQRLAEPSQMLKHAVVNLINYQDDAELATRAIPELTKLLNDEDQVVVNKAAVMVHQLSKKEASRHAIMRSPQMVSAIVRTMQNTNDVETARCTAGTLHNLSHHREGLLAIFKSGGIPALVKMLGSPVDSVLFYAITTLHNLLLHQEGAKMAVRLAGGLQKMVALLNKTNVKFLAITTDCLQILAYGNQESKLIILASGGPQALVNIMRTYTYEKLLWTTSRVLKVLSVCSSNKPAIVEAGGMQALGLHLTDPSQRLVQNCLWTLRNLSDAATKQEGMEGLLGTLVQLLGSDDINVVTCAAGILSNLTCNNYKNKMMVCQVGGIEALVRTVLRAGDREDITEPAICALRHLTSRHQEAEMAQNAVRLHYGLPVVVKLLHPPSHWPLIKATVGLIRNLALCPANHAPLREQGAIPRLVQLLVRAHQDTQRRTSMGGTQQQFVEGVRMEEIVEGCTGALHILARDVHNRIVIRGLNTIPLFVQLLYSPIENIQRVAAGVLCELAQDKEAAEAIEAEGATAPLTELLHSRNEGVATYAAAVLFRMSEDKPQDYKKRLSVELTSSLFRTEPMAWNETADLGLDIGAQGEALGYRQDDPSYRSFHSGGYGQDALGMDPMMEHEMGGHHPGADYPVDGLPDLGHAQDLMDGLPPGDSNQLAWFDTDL

FRET efficiency [1] | FRET efficiency [2] | FRET efficiency [3] | Substance
36.5% | 75% | – | SC-35 protein (serine/arginine-rich splicing factor 2, encoded by the SRSF2 gene) (from UniProt Q62093 1-221) (natural protein)
– | – | 27 to 29% | EGFP-tagged SRSF2 (from UniProt Q01130 1-221) (natural protein)
